Experimental data taken from publication PMC5101480 (Scientific Reports, 2016).
Entries after “also recorded” stand apart in the source; their conditions may differ.

Experiments:
[1] = test system: TPR domain of SGTA (SGTA_TPR, residues 84–211); assay: Solution NMR CSP titration of unlabelled SGTA_TPR into 15N-labelled Rpn13_260-407; type: binding, human; conditions: 15N-labelled Rpn13_260-407, SGTA_TPR to 1:1; pH 6.0, 25 °C
Experimental: In order to understand molecular details underlying the interaction between SGTA and Rpn13, solution NMR studies were carried out on excised domains of SGTA and Rpn13 guided by earlier mapping studies. Reciprocal chemical shift perturbation (CSP) experiments were performed by titrating unlabelled Rpn13 C-terminal domain (residues 260–407; hereafter described as Rpn13_260-407) into ^15N-labelled TPR domain of SGTA (residues 84–211; hereafter referred to as SGTA_TPR) and vice versa. Assignments of backbone amide resonances were obtained from the BMRB (accession numbers 5709 and 17286, for SGTA_TPR and Rpn13_260-407, respectively). […]
Protein samples at concentrations between 300 μM and 1 mM were prepared in 10% D2O (Sigma Aldrich), 10 mM potassium phosphate pH 6.0, 100 mM NaCl and 250 μM TCEP buffer (with 10 μM DSS for proton chemical shift referencing). […] All NMR spectra were processed with TopSpin and analysed with CcpNMR Analysis[35]. Proteins used for NMR titrations were dialysed overnight against the same buffer (10 mM potassium phosphate pH 6.0, 100 mM NaCl and 250 μM TCEP) and mixed in different molar ratios, with the concentration of the labelled protein maintained constant. ^1H-^15N HSQC experiments were recorded for each titration point at 25 °C. Chemical shift perturbation (CSP) values were calculated for each amide signal using the following formula: […]

[2] = molecular target: T1, TPR domain of SGTA (SGTA_TPR) (Homo sapiens, UniProt O43765); assay: Isothermal titration calorimetry (ITC), SGTA_TPR titrated into Rpn13 or DMSLD peptide; type: binding
T1 construct: thioredoxin A (TxA) fusion (N, cleaved yes); hexahistidine tag (N, cleaved yes); made in house; host or cells: E. coli BL21(DE3) Rosetta
Experimental: ITC experiments were performed using an ITC-200 microcalorimeter from Microcal (GE Healthcare) at 25 °C following the standard protocol as reported previously. Proteins or peptide samples were prepared in 10 mM potassium phosphate pH 6.0, 100 mM NaCl, 250 μM TCEP. In each titration, either 40 injections of 1 μL or 20 injections of 2 μL of SGTA_TPR each, at a concentration of 1 mM, were added to a sample of Rpn13 or the Rpn13 derived DMSLD peptide at a concentration of 50 μM in the reaction cell. A nonlinear least-squares minimization algorithm was applied to integrated heat data obtained for the titrations, corrected for heats of dilution, in order to fit the experimentally obtained values to a theoretical titration curve. This was performed using the MicroCal-Origin 7.0 software package. ΔH (reaction enthalpy change in kcal/mol), Kb (equilibrium binding constant in per molar), and n (molar ratio between the proteins in the complex) were used as fitting parameters. The reaction entropy, ΔS, was calculated using the relationships ΔG = −RT lnKb (R = 8.314 J/(mol K), T 298 K) where ΔG = ΔH − TΔS. Dissociation constants (Kd) have been determined for each interaction. Binding was assumed to be at one site (n = 1), to determine the binding affinity (Kd) and thermodynamic parameters.

[3] = test system: K160E/R164E double mutant SGTA_TPR; assay: Size exclusion chromatography (SEC) complex formation with K160E/R164E double mutant SGTA_TPR; type: binding, human; conditions: Rpn13_260-407 up to 3-fold molar excess
Excerpt: The ‘two-carboxylate clamp’ mode of binding is a well-characterised mechanism of molecular recognition by TPR domains in the context of their binding to the conserved C-terminal IEEVD and MEEVD motifs of Hsp70 and Hsp90 chaperones, respectively. It is known that conserved residues present on the concave surface of the TPR domain form a positively charged region within this groove that clamp, the two carboxylate groups of the terminal aspartate (Fig. 3D). As the Rpn13 amino acid sequence ends with an aspartate, and given the C-terminal DMSLD peptide being necessary and sufficient for this interaction, the possibility of a two-carboxylate clamp mechanism was explored by site-directed mutagenesis experiments. […] Therefore a K160E/R164E double mutant version of SGTA was used in SEC and NMR experiments to understand the effect it had on Rpn13_260-407 binding.
Gene fragments encoding human Rpn13 (260–407 and 260–402) and SGTA_TPR domain (84–211) were PCR amplified from cDNA (Life Technologies) and cloned into the BamHI/XhoI site of a modified pET28 vector which encodes an N-terminal thioredoxine A (TxA) fusion protein followed by a hexahistidine tag and tobacco etch virus (TEV) protease cleavage site. […]

T1 sequence (O43765 84-211): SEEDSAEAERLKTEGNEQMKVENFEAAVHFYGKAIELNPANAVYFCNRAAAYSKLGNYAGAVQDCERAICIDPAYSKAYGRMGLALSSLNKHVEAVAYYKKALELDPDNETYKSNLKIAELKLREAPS

ΔS (ITC) ([2]; 1 mM SGTA_TPR into 50 μM sample, pH 6.0, 25 °C, calculated from ΔG = −RT lnKb and ΔG = ΔH − TΔS): 10.6 ± 0.8 cal/mol·K | ΔH (ITC) ([2]; 1 mM SGTA_TPR into 50 μM sample, pH 6.0, 25 °C, one site (n = 1)): -3.37 ± 0.08 kcal/mol | Kd ([2]; ITC-200, 1 mM SGTA_TPR injected into 50 μM Rpn13 or DMSLD peptide, 10 mM potassium phosphate pH 6.0, 100 mM NaCl, 250 μM TCEP, 25 °C, one site (n = 1), read-out: dissociation constant, Kd (ITC)): 16.1 ± 1.4 µM
B1: Rpn13_260-407: Rpn13 C-terminal domain (residues 260–407), human, expressed in E. coli (protein)
chain: QPIQLSDLQSILATMNVPAGPAGGQQVDLASVLTPEIMAPILANADVQERLLPYLPSGESLPQTADEIQNTLTSPQFQQALGMFSAALASGQLGPLMCQFGLPAEAVEAANKGDVEAFAKAMQNNAKPEQKEGDTKDKKDEEEDMSLD
modifications: left off: thioredoxin A (TxA), N-terminal, cleaved | His6, N-terminal, cleaved
notes: Rpn13 C-terminal domain (residues 260–407), human, expressed in E. coli
CSP of Rpn13_260-407 backbone amides on binding SGTA_TPR [1]: only extreme C-terminal residues Met 404, Ser 405, Leu 406 and Asp 407 are perturbed | SEC complex formation with K160E/R164E SGTA_TPR [3]: does not co-elute; also recorded: no evidence of complex formation
